3 molecules from patent US8158585B2, “Cross-β structure comprising amyloid-binding proteins and methods for detection of the cross-β structure, for modulating cross-β structures fiber formation and modulating cross-β structure-mediated toxicity” (CrossBeta Biosciences B.V., priority 2002, dated 2012) can be followed below.

Data set [1] has as its target T1, tPA (Homo sapiens, UniProt P00750).
T1 construct: purchased Boehringer-Ingelheim (Germany)
The data set is described as follows: ELISA: binding of tPA to 86-week glycated albumin-AGE preparations. As to conditions: albumin incubated 86 weeks; 10 mM εACA. On the procedure:
Binding of the cross-B structure marker tPA to albumin-AGE was tested using an ELISA setup. […] Therefore, we used tPA binding to these two peptides as positive control. The 86-week glycated samples and controls were coated to Greiner microlon plates (catalogue #655092, Greiner, Frickenhausen, Germany). Wells were blocked with Superblock (Pierce, Rockford, Ill., USA). All subsequent incubations were performed in PBS/0.1% (v/v) Tween 20 for one hour at room temperature while shaking, with volumes of 50 μl per well. After incubation, wells were washed five times with 300 μl PBS/0.1% (v/v) Tween 20. Increasing concentrations of tPA were added in triplicate to coated wells as well as to control wells. During tPA incubations of 86-week incubated samples, at least a 123,000 times molar excess of ε-amino caproic acid (εACA, 10 mM) was added to the solutions. εACA is a lysine analogue and is used to avoid potential binding of tPA to albumin via its kringle 2 domain.^50 Monoclonal antibody 374b (American Diagnostica, Instrumentation laboratory, Breda, The Netherlands) and, subsequently, RAMPO (Dako diagnostics, Glostrup, Denmark) was added to the wells at a concentration of 0.3 μg ml^−1. Bound peroxidase-labeled antibody was visualized using 100 μl of a solution containing 8 mg ortho-phenylene-diamine in 20 ml 50 mM citric acid/100 mM Na2HPO4 pH 5.0 with 0.0175% (v/v) H2O2. Staining was stopped upon adding 50 μl of a 2 M H2SO4 solution. Absorbance was read at 490 nm on a Vmax kinetic microplate reader (Molecular Devices, CA, USA). Background signals from non-coated control wells were substracted from corresponding coated wells.

The nature of data set [2]: Circular dichroism: percentage β-sheet (k2d software). The format is physicochemical. On the procedure:
UV circular dichroism (CD) spectra of peptide and protein solutions ([…] in H2O) were measured on a JASCO J-810 CD spectropolarimeter (Tokyo, Japan). Averaged absorption spectra of five or ten single measurements from 190-240 nm or from 190-250 nm, for fibrin peptides 85, 86, 87 or for albumin, glycated albumin and human Aβ (16-22), respectively, are recorded. The CD spectrum of Aβ (16-22) was measured as a positive control. Aβ (16-22) readily adopts amyloid fiber conformation with cross-β structure when incubated in H2O^45. For albumin and Aβ (16-22), relative percentage of the secondary structure elements present was estimated using k2d software.^48

Data set [3] has as its target T1, tPA. The data set can be described thus: ELISA: binding of tPA to glycated albumin and Hb. The settings on record: g6p-glycated protein immobilized. On the procedure: Binding of tPA to albumin-g6p (four-week and 23-week incubations), albumin-glyceraldehyde, control albumin, human Hb-g6p (ten-week incubation), Hb control, or to Aβ (1-40) was tested using an enzyme-linked immunosorbent assay (ELISA) set-up. Albumin-g6p and control albumin (2.5 μg ml^−1 in coat buffer, 50 mM Na2CO3/NaHCO3 pH 9.6, 0.02% m/v NaN3, 50 μl/well) were immobilized for one hour at room temperature in 96-well protein Immobilizer plates (Exiqon, Vedbaek, Denmark). Aβ (1-40) (10 μg ml^−1 in coat buffer) was immobilized for 75 minutes at room temperature in a 96-well peptide Immobilizer plate (Exiqon, Vedbaek, Denmark). Control wells were incubated with coat buffer only. After a wash step with 200 μl of PBS/0.1% v/v Tween 20, plates were blocked with 300 μl of PBS/1% v/v Tween 20, for two hours at room temperature while shaking. All subsequent incubations were performed in PBS/0.1% v/v Tween 20 for one hour at room temperature while shaking, with volumes of 50 μl per well. After each incubation, wells were washed five times with 200 μl of PBS/0.1% v/v Tween 20. Increasing amounts of f.l. tPA or K2-P tPA was added in triplicate to coated wells and to control wells. […] Absorbance was read at 490 nm on a Vmax kinetic microplate reader (Molecular Devices, Sunnyvale, Calif., USA).
(In general: In an ELISA, binding on a coated surface is turned into a signal by an enzyme label.)

The target of data set [4] is T2, mΔIAPP (Mus musculus, UniProt P12968).
T2 construct: purchased Pepscan, Inc. or peptide synthesis facility of the Netherlands Cancer Institute; host or cells: chemical synthesis
The data set can be described thus: Amyloid ELISA with tPA F-EGF-GST: non-amyloid control. In kind it is binding. On the procedure: In order to define the affinity of the purified tPA F-EGF-GST recombinant protein, ELISAs were performed with immobilized amyloid (poly)peptides and non-amyloid control ΔmIAPP. Twenty-five μg ml^−1 of Aβ, FP13, IAPP or ΔmIAPP was immobilized on Exiqon peptide immobilizer plates. A concentration series of tPA F-EGF-GST in the presence of excess εACA was added to the wells and binding was assayed using anti-GST antibody Z-5. As a control, GST (Sigma-Aldrich, St. Louis, Mo., USA, catalogue #G-5663) was used at the same concentrations.

The target in data set [5] is T3, Aβ fibrils (Homo sapiens, UniProt P05067).
T3 construct: Peptide Aβ (1-40), containing amino acids as present in the described human Alzheimer peptide; purchased Pepscan, Inc. (The Netherlands) or peptide synthesis facility at the Netherlands Cancer Institute; host or cells: synthetic peptide
T3 sequence (P05067 672-711): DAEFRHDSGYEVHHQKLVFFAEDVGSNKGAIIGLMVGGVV
The data set can be described thus: Amyloid pull-down with insoluble Aβ fibers. The format is binding. As to conditions: conditioned BHK medium. On the procedure:
Conditioned medium of BHK cells expressing GST-tagged tPA F, F-EGF, EGF, K1, F-EGF-K1, FXII F, HGFa F, Fn F4, Fn F5, Fn F4-5 and GST was used for amyloid binding assays. At first, constructs were adjusted to approximately equal concentration using Western blots. Qualitative binding of the recombinant fragments were evaluated using a “pull-down” assay. To this end, the recombinantly made fragments were incubated with either Aβ or IAPP fibrils. Since these peptides form insoluble fibers, unbound proteins can be easily removed from the fibers following centrifugation. The pellets containing the bound fragments were subsequently washed several times. Bound fragments were solubilized in SDS-sample buffer and analyzed by PAGE, as were unbound proteins in the supernatant fraction and starting material. The gels were analyzed using immunoblotting analysis with the anti-GST antibody Z-5.

In data set [6] the test system is amyloid deposits in human brain inflicted by AD. The data set can be described thus: Immunohistochemistry: binding of tPA F-EGF to human AD brain. The settings on record: 7 nM construct; Congo red fluorescence to locate amyloid. Here is the method: Paraffin brain sections of a human inflicted with AD was a kind gift of Prof. Slootweg (Dept. of Pathology, UMC Utrecht). Sections were deparaffinized in a series of xylene-ethanol. Endogenous peroxidases were blocked with methanol/1.5% H2O2 for 15 minutes. After rinsing in H2O, sections were incubated with undiluted formic acid for ten minutes, followed by incubation in PBS for five minutes. Sections were blocked in 10% HPS in PBS for 15 minutes. Sections were exposed for two hours with 7 nM of tPA F-EGF-GST or GST in PBS/0.3% BSA. After three wash steps with PBS, sections were overlayed with 200 ng ml^−1 anti-GST antibody Z-5, for one hour. After washing, ready-to-use goat anti-rabbit Powervision (Immunologic, Duiven, The Netherlands, catalogue #DPVR-55AP) was applied and incubated for one hour. After washing, sections were stained for ten minutes with 3,3′-diamino benzidine (Sigma-Aldrich, St Louis, Mo., USA, catalogue #D-5905), followed by hematoxylin staining for ten seconds. After washing with H2O, sections were incubated with Congo red according to the manufacturer's recommendations (Sigma Diagnostics, St Louis, Mo., USA). […] Analysis of sections was performed on a Leica DMIRBE fluorescence microscope (Rijswijk, The Netherlands). Fluorescence of Congo red was analyzed using an excitation wavelength of 596 nm and an emission wavelength of 620 nm.

In data set [7] the test system is Aβ-stimulated plasmin formation in N1E-115 cells. The data set is described as follows: Western blot of plasmin formation in N1E-115 cultures. The format is cell-based, mouse. The settings on record: co-incubation with CpB. Here is the method:
(§1) FIG. 5 depicts graphs illustrating that carboxypeptidase B inhibits Aβ-stimulated tPA-mediated plasmin formation and cell detachment. […] Samples were taken from the reaction mixture at the indicated periods of time and plasmin activity was measured by conversion of the chromogenic plasmin substrate S-2251 at 405 nm. The reaction was performed in the absence or the presence of 50 μg ml^−1 carboxypeptidase B (CpB) and in the absence or presence of 3.5 μM carboxypeptidase inhibitor (CPI). CpB greatly attenuates A-stimulated plasmin formation. […] After 24 hours, the cells were photographed. Panel C illustrates that, subsequently, the cells were washed once with PBS and the remaining cells were quantified as percentage-adhered cells by methylene blue staining. In Panel D, the cells were treated as in Panels B and C and medium and cell fractions were collected and analyzed by Western blot using an anti-plasmin(ogen) antibody. Aβ stimulates plasmin formation that is inhibited by CpB.
N1E-115 mouse neuroblastoma cells were routinely cultured in DMEM containing 5% FCS, supplemented with antibiotics. […] Cells were photographed, counted and lysed by the addition of 4× sample buffer (250 mM Tris pH 6.8, 8% SDS, 10% glycerol, 100 mM DTT, 0.01% w/v bromophenol blue) to the medium. […]
A general note: In western blotting, separated proteins are transferred to a membrane and probed.

In data set [8] the test system is differentiated N1E-115 cells. The data set is described as follows: N1E-115 cell detachment (methylene blue staining). In kind it is cell-based, mouse. The settings on record: Aβ 10 μM, plasminogen 20 μg ml−1, CpB 1 μM, 24 hours. Here is the method:
FIG. 4 is a set of graphs illustrating stimulation of tPA-mediated plasmin formation by Aβ and synergistic stimulation of cell detachment by plasminogen and Aβ. Panel A depicts that plasminogen (200 μg/ml) and tPA (200 pM) were incubated with Aβ (5 μM) or control buffer. Samples were taken from the reaction mixture at the indicated periods of time and plasmin activity was measured by conversion of the chromogenic plasmin substrate S-2251 at 405 nm. […] After 48 hours, the dead cells were washed away and the remaining adherent cells were stained with methylene blue. Plasmin cannot prevent Aβ-induced cell detachment. Panel C illustrates that N1E-115 cells were differentiated and received the indicated concentrations of plasminogen in the presence or absence of 10 μM Aβ. After 24 hours, cell detachment was assessed. […] Panel D is an immunoblot analysis of plasmin formation and laminin degradation. Differentiated N1E-115 cells were treated with or without Aβ (10 μM) in the absence or presence of added plasminogen. Addition of Aβ results in the formation of plasmin (bottom panel) and in degradation of laminin (top panel).
as §1
N1E-115 mouse neuroblastoma cells were routinely cultured in DMEM containing 5% FCS, supplemented with antibiotics. Cells were differentiated into post-mitotic neurons.^52 The cells were exposed to Aβ (50 μg ml^−1) for 24 hours in the presence or absence of 20 μg ml^−1 plasminogen in the presence or absence of 50 μg ml^−1 CpB. Cells were photographed, counted and lysed by the addition of 4× sample buffer (250 mM Tris pH 6.8, 8% SDS, 10% glycerol, 100 mM DTT, 0.01% w/v bromophenol blue) to the medium. The lysate, containing both adherent and floating (presumably dying and/or dead) cells, as well as the culture medium, were analyzed for the presence of plasminogen and plasmin, as well as for laminin, by Western blot analysis using specific antibodies against plasminogen (MoAb 3642, American Diagnostics), laminin (PoAb L9393, Sigma).

Data set [9] addresses T4, tPA-mediated plasminogen activation (Homo sapiens, UniProt P00750).
T4 construct: purchased Boehringer-Ingelheim (Germany)
The data set can be described thus: Plasminogen activation assay. In kind it is biochemical. The settings on record: 50 μg ml−1 CpB, 5 μM Aβ. On the procedure:
Plasminogen (200 μg ml^−1) was incubated with tPA (200 pM) in the presence or the absence of a co-factor (5 μM of either endostatin, Aβ (1-40), or one the fibrin-derived peptides 85, 86 and 87). At the indicated time intervals, samples were taken and the reaction was stopped in a buffer containing 5 mM EDTA and 150 mM εACA. After collection of the samples, a chromogenic plasmin substrate S-2251 was added and plasmin activity was determined kinetically in a spectrophotometer at 37° C.

T1 sequence (P00750 36-562): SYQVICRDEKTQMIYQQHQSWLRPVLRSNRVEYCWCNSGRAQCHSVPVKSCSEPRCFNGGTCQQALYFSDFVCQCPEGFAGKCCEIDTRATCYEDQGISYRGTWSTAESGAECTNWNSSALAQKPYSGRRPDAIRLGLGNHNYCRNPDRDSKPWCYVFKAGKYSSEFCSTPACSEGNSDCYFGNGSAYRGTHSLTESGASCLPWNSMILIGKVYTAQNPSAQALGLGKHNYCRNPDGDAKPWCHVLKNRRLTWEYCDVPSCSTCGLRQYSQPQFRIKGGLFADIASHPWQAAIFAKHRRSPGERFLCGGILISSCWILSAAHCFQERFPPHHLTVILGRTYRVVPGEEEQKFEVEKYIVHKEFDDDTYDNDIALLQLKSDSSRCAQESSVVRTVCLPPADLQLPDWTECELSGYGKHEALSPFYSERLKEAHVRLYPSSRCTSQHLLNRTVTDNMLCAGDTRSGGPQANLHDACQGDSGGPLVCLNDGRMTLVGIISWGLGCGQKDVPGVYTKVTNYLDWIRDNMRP
T4 sequence (P00750 36-562): as above

Turning to Albumin-g6p, the “binding of amyloid-specific serine protease tPA” value in [1] is recorded as “bound specifically”. The entries for the “β-sheet (%)” value in data set [2] (incubation time 2 weeks), in [2] (incubation time 4 weeks) and in [2] (incubation time 23 weeks) were 0%, 7% and 19%, respectively. Also, in data set [3], the tPA binding entry was “high-affinity tPA binding”.

B1: tPA F-EGF-GST: tPA F-EGF domains with C-terminal GST tag, expressed in BHK cells and purified (protein)
chain: SYQVICRDEKTQMIYQQHQSWLRPVLRSNRVEYCWCNSGRAQCHSVPVKSCSEPRCFNGGTCQQALYFSDFVCQCPEGFAGKCCEID
modifications: left off: small tags and cut ends; a dimerising Fc or GST
notes: tPA F-EGF domains with C-terminal GST tag, expressed in BHK cells and purified
With B1, the “binding to non-amyloid mΔIAPP” value in data set [4] was “No binding”. For the same molecule, the “binding to Aβ fibers (pull-down, Western blot)” value in [5] was “Efficient binding”. Further, the “binding to amyloid deposits in AD brain sections” value in data set [6] was “positive for tPA F-EGF-GST binding”.

B2: CpB: porcine pancreas carboxypeptidase B from Roche (protein, UniProt P09955 111-416, looked up)
Carboxypeptidase B: TTGHSYEKYNNWETIEAWTKQVTSENPDLISRTAIGTTFLGNNIYLLKVGKPGPNKPAIFMDCGFHAREWISHAFCQWFVREAVLTYGYESHMTEFLNKLDFYVLPVLNIDGYIYTWTKNRMWRKTRSTNAGTTCIGTDPNRNFDAGWCTTGASTDPCDETYCGSAAESEKETKALADFIRNNLSSIKAYLTIHSYSQMILYPYSYDYKLPENNAELNNLAKAAVKELATLYGTKYTYGPGATTIYPAAGGSDDWAYDQGIKYSFTFELRDKGRYGFILPESQIQATCEETMLAIKYVTNYVLGHL
Turning to B2, the “Aβ-stimulated plasmin formation in the medium and on the cells” value in [7] was “complete inhibition”. Besides, the “cell detachment induced by plasminogen and Aβ” value in [8] is recorded as “completely prevented”. The “Aβ-stimulated generation of plasmin in the presence of CpB” value in [9] was “greatly diminished”.
